Results published in PMC11594477.

Biological target: human Flag-tagged RAC2 T108A mutant (human), P15153
Assay: co-IP; Caki-1 cells transfected with Flag-tagged WT, S86A or T108A RAC2; interaction with NEDD4L quantified relative to WT
Conditions: remark: other sources report otherwise

B1: Neural precursor cell expressed developmentally down-regulated 4-like (NEDD4L), endogenous, Q96PU5-5 1-955 (enzyme)
chain: MATGLGEPVYGLSEDEGESRILRVKVVSGIDLAKKDIFGASDPYVKLSLYVADENRELALVQTKTIKKTLNPKWNEEFYFRVNPSNHRLLFEVFDENRLTRDDFLGQVDVPLSHLPTEDPTMERPYTFKDFLLRPRSHKSRVKGFLRLKMAYMPKNGGQDEENSDQRDDMEHGWEVVDSNDSASQHQEELPPPPLPPGWEEKVDNLGRTYYVNHNNRTTQWHRPSLMDVSSESDNNIRQINQEAAHRRFRSRRHISEDLEPEPSEGGDVPEPWETISEEVNIAGDSLGLALPPPPASPGSRTSPQELSEELSRRLQITPDSNGEQFSSLIQREPSSRLRSCSVTDAVAEQGHLPPPSVAYVHTTPGLPSGWEERKDAKGRTYYVNHNNRTTTWTRPIMQLAEDGASGSATNSNNHLIEPQIRRPRSLSSPTVTLSAPLEGAKDSPVRRAVKDTLSNPQSPQPSPYNSPKPQHKVTQSFLPPGWEMRIAPNGRPFFIDHNTKTTTWEDPRLKFPVHMRSKTSLNPNDLGPLPPGWEERIHLDGRTFYIDHNSKITQWEDPRLQNPAITGPAVPYSREFKQKYDYFRKKLKKPADIPNRFEMKLHRNNIFEESYRRIMSVKRPDVLKARLWIEFESEKGLDYGGVAREWFFLLSKEMFNPYYGLFEYSATDNYTLQINPNSGLCNEDHLSYFTFIGRVAGLAVFHGKLLDGFFIRPFYKMMLGKQITLNDMESVDSEYYNSLKWILENDPTELDLMFCIDEENFGQTYQVDLKPNGSEIMVTNENKREYIDLVIQWRFVNRVQKQMNAFLEGFTELLPIDLIKIFDENELELLMCGLGDVDVNDWRQHSIYKNGYCPNHPVIQWFWKAVLLMDAEKRIRLLQFVTGTSRVPMNGFAELYGSNGPQLFTIEQWGSPEKLPRAHTCFNRLDLPPYETFEDLREKLLMAVENAQGFEGVD
interaction, percent of the WT level (% of the WT level): 20
